Assay [1] concerns the target T1, Fc fused human B7-H4 protein (human, UniProt Q7Z7D3 29-258, limits assumed).
T1 construct: Coated on ELISA plates; not shown: Fc part
T1 sequence (looked up): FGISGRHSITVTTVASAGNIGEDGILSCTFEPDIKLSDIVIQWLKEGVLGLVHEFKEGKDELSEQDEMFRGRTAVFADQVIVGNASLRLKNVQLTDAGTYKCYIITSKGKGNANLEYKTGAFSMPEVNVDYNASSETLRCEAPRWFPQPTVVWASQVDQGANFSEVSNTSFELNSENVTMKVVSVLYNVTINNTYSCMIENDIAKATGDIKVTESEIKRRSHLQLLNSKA
The assay can be described thus: ELISA, Fc fused human B7-H4 coated at 1 µg/ml, anti-human Fab HRP. As to the method: To evaluate the antigen binding activity of the humanized antibody, 16E3H3 M1 was subjected to ELISA. Briefly, ELISA plates were coated with Fc fused human B7-H4 protein at 1 μg/ml in PBS, 100 ul/well at 4° C. overnight, then blocked with 200 ul/well of 1% BSA in PBS at 37° C. Four fold dilutions of monoclonal antibody starting from 100 nM were added to each well and incubated for 1 hours at 37° C. The plates were washed with PBST (0.05% Tween 20 in PBS) and then incubated with HRP (Horse Radish Peroxidase) conjugated Anti-human Fab for 1 hr at 37° C. The plates were washed with PBST (Tween 20 0.05% in PBS) developed with TMB substrate and analyzed by spectrophotometer at OD 450 nm˜650 nm. As shown FIG. 2. 16E3H3 M1 bound to human B7-H4 with dose dependent manner.

Assay [2] addresses T2, human B7-H4 expressed on cells (CHOK-1 B7-H4, SK-BR3, CAMA-1, MDA-MB-468, MX-1, OVCAR-3) (human, UniProt Q7Z7D3 25-282).
T2 construct: whole, on cells; also called B7-H4 expressed cell line; B7-H4 positive cancer cell lines
T2 sequence (looked up): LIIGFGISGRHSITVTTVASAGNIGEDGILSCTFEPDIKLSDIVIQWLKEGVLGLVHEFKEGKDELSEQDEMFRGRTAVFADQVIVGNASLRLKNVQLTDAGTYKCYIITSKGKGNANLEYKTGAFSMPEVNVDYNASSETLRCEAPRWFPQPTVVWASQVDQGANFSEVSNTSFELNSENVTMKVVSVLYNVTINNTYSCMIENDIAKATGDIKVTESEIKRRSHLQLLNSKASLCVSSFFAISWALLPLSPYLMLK
Kind of assay: FACS on SK-BR3 cells, FITC anti-human IgG1 detection; y axis 'Fold of induction'. As to the method:
(§1) To evaluate the tumor antigen binding property, 16E3H3 M1 clone was analyzed for its binding to B7-H4-expressing mammalian cells by FACS. Briefly, B7-H4 positive cell (MX-1, CAMA-1, SK-BR3 and OVCAR-3) or B7-H4 negative cells (PANC-1) were incubated with M40413 antibody. After wash by FACS buffer (1% BSA in PBS), the FITC-anti-human IgG 1 antibody was added to each well and incubated at 4° C. for 45 min. The MFI of FITC was evaluated by FACS Calibur.

Assay [3] deals with T2, human B7-H4 expressed on cells (CHOK-1 …). Kind of assay: FACS on CAMA-1 cells, FITC anti-human IgG1 detection; y axis 'Fold of induction'. As to the method:
as §1

The target in another assay is T3, B7-H2.
T3 construct: one of the 'other B7-family proteins'; Commonly known as ICOS ligand
T3 chain: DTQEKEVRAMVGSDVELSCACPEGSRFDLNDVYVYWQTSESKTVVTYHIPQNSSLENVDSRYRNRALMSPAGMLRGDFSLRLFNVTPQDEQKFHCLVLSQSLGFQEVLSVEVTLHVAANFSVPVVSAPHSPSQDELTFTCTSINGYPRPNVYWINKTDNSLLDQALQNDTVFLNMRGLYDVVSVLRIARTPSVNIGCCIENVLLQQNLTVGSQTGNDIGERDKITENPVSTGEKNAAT
Kind of assay: ELISA on plate-coated B7-H2 (100 ng/well), three-fold dilutions of B10317 from 100 nM. The protocol:
(§2) To confirm the specific binding of anti-B7-H4/anti-4-1BB bispecific antibody against B7-H4, B10317 subjected to ELISA test. Microtiter plates were coated with each protein (100 ng/well) at 4° C. overnight, then blocked with 200 μl/well PBSB (1% (w/v) BSA in PBS). Three-fold dilutions of B10317 starting from 100 nM was added to each well and incubated at 37° C. for 1 hours. The plates were washed with PBST (0.05% (v/v) Tween20 in PBS) and then incubate for 1 hours at 37° C. with 100 ul of Anti-Fc HRP (Dilution factor, 1:30000) or Anti-Fab HRP (Dilution factor, 1:20000). The plates were washed with PBST (0.05% (v/v) Tween20 in PBS) and then the plates were developed with TMB substrate and analyzed by spectrophotometer at 450-650 nm.

Assay [4] deals with T4, Recombinant 4-1BB (Monkey) protein (Monkey).
T4 construct: also called monkey 4-1BB
The assay can be described thus: SPR, antibody captured on Protein A chip, 4-1BB 250 nM to 15.625 nM as analyte. As to the method: (§3) In the SPR experiment, the anti-B7-H4/anti-4-1BB bispecific antibody obtained in Preparation Example 3 was captured on flow-cells 2, 3 and 4, keeping the flow-cell 1 as reference, on a Protein A Chip on which an anti-B7-H4/anti-4-1BB Bispecific antibody (B10317) has been immobilized by amine coupling. Recombinant B7-H4 (Human/Monkey) or 4-1BB (Human/Monkey) protein was flowed across the chip at concentration range from 100 nM to 6.25 nM for B7-H4 or 250 nM to 15.625 nM for 4-1BB at 30 μl/min for 60 seconds, followed by a dissociation phase of 180 seconds. Regeneration was performed with 10 mM Glycine-HCl (pH 1.5).

For assay [5], the target named is 4-1BB on GloResponse NFκB-luc2/4-1BB Jurkat cells (UniProt Q07011 24-255, limits assumed). Kind of assay: cell-based or functional assay.
Assay [6] has as its target T5, Recombinant B7-H4 (Monkey) protein (Monkey).
T5 construct: also called monkey B7-H4
Kind of assay: SPR, antibody captured on Protein A chip, B7-H4 100 nM to 6.25 nM as analyte. The protocol: as §3

The target in another assay is T6, recombinant human B7-H4 (human, UniProt Q7Z7D3 29-258, limits assumed).
T6 construct: also called Recombinant B7-H4 (Human)
T6 sequence (looked up): T1 sequence (looked up)
The description is as above. As to the method: as §3

The next assay addresses T7, B7-H6.
T7 construct: one of the 'other B7-family proteins'; Commonly known as NCR3LG1
T7 chain: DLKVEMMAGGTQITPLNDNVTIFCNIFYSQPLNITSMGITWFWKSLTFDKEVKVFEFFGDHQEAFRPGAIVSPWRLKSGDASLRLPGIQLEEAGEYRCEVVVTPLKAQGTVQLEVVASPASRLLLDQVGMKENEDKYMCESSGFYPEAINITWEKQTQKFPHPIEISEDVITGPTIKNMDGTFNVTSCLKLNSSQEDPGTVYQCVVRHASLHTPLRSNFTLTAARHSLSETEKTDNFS
Kind of assay: ELISA on plate-coated B7-H6 (100 ng/well), three-fold dilutions of B10317 from 100 nM. As to the method: as §2

The target in assay [7] is T2, human B7-H4 expressed on cells (CHOK-1 …). Kind of assay: FACS on CAMA-1 cells, FITC anti-human IgG detection; table under the graph prints no unit, x axis is Ab, Log[nM]. The protocol: (§4) To evaluate the tumor antigen binding property, B10317 bispecific antibody was analyzed for its binding to B7-H4-expressing mammalian cells by FACS. Briefly, B7-H4 positive cells (MX-1 and CAMA-1) were incubated with B10317 antibodies. After wash by FACS buffer (1% BSA in PBS), the FITC-anti-human IgG antibody was added to each well and incubated at 4° C. for 45 min. The MFI of FITC was evaluated by FACS Calibur.

For assay [8] the target is unchanged. The assay can be described thus: FACS on MX-1 cells, FITC anti-human IgG detection; table under the graph prints no unit, x axis is Ab, Log[nM]. As to the method:
as §4

The next assay deals with T8, B7-2.
T8 construct: one of the 'other B7-family proteins'; Commonly known as CD86
T8 chain: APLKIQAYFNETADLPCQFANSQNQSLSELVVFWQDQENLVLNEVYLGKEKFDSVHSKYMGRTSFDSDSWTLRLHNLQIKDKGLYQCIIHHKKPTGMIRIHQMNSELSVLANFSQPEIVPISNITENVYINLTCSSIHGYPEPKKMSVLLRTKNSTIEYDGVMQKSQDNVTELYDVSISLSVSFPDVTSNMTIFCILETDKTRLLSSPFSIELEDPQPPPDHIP
Kind of assay: ELISA on plate-coated B7-2 (100 ng/well), three-fold dilutions of B10317 from 100 nM. The protocol: as §2

Another assay deals with T9, B7-1.
T9 construct: one of the 'other B7-family proteins'; Commonly known as CD80
T9 chain: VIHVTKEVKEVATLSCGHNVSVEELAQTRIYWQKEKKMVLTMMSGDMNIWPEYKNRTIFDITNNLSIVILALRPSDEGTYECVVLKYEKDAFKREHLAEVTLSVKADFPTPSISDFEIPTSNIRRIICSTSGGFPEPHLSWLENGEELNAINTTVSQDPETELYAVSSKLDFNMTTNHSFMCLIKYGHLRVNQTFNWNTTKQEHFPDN
The assay can be described thus: ELISA on plate-coated B7-1 (100 ng/well), three-fold dilutions of B10317 from 100 nM. As to the method: as §2

Sequence of 4-1BB on GloResponse NFκB-luc2/4-1BB Jurkat cells (Q07011 24-255 limits assumed): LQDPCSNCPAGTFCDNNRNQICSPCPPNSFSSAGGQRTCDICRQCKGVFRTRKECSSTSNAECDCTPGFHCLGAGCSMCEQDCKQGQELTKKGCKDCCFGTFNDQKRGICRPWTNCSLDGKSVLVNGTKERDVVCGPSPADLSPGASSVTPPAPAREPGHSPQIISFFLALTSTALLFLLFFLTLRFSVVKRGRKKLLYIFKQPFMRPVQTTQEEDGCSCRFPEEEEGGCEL

B1: 16E3H3 M1 monospecific antibody (humanized anti-B7-H4 IgG1) (antibody, V domains shown)
VH: QVQLVQSGAEVKKPGASVKVSCKASGYPFTTYGMNWVKQAPGQGLEWMGWIDTYSGVPTYADDFKGRVTMTRDTSISTAYMELSRLRSDDTAVYFCARRSFWYFDVWGAGTTVTVSS
VL: DVVMTQSPLSLPVTLGQPASISCRSSQSLVHSNANTYLHWYLQRPGQSPRLLIYKVSNRFSGVPDRFSGSGSGTDFTLKISRVEAEDVGVYFCSQSTHVPWTFGGGTKVEIKR
notes: Humanized 16E3H3 with G29A in CDR-L1 for PTM removal; also called M40413; 16E3H3 M1 clone
In assay [1], B1 yielded a concentration giving a half-maximal response (EC50) of 0.079 nM. Further, the concentration for a half-maximal effect (EC50 (read off the curve)) in [2] is ~4 nM; in assay [3], ~5 nM.

B2: 16E3H3 M1 x 1A10 M12 anti-B7-H4/anti-4-1BB bispecific antibody (bispecific antibody, human IgG1, kappa, N297A)
heavy: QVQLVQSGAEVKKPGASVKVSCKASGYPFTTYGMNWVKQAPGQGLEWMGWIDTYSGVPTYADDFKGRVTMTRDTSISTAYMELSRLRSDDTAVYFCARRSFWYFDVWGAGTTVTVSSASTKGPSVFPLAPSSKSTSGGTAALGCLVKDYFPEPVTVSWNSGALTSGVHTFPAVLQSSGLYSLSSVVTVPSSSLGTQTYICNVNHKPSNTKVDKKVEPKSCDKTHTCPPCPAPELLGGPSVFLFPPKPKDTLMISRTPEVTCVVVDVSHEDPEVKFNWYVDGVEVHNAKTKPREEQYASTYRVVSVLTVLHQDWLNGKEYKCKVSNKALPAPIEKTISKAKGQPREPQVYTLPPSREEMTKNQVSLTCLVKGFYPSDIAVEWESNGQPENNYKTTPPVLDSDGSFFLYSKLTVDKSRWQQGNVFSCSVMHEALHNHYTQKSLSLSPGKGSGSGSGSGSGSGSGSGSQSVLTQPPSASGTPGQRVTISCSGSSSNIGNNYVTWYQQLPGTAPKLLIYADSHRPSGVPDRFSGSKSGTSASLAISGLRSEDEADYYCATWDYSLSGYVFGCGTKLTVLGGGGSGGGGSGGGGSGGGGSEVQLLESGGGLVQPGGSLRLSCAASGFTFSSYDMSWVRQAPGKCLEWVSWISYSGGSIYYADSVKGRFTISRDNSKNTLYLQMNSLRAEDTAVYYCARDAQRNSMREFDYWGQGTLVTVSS
light: DVVMTQSPLSLPVTLGQPASISCRSSQSLVHSNANTYLHWYLQRPGQSPRLLIYKVSNRFSGVPDRFSGSGSGTDFTLKISRVEAEDVGVYFCSQSTHVPWTFGGGTKVEIKRTVAAPSVFIFPPSDEQLKSGTASVVCLLNNFYPREAKVQWKVDNALQSGNSQESVTEQDSKDSTYSLSSTLTLSKADYEKHKVYACEVTHQGLSSPVTKSFNRGEC
notes: IgG-scFv format: anti-B7-H4 IgG1 (N297A) heavy chain, (GS)9 linker, anti-4-1BB scFv 1A10 M12 (VL-(GGGGS)4-VH) at the C-terminus; also called B10317; 16E3H3 M1×1A10M12
Regarding B2, the binding result in the assay with B7-H2 is reported as “no binding (tested: 100 nM)”. Moreover, in assay [4], the Kd was determined as 4.01 nM, the koff is 0.000899 s⁻¹ and the on-rate constant (kon) is 224000 M⁻¹ s⁻¹. Besides, in [5], the “EC50 (nM) [NF-kB assay], with B-CAG-hB7-H4 MC38 cells” value came to 0.093 nM; the “EC50 (nM) [NF-kB assay], with CAMA-1 cells” value is 0.145 nM; the “EC50 (nM) [NF-kB assay], with HCC1954 cells” value was found to be 0.647 nM; the “EC50 (nM) [NF-kB assay], with MDA-MB-468 cells” value is 0.403 nM. In [5], the “EC50 (nM) [NF-kB assay], with MX-1 cells” value amounted to 0.184 nM; the “EC50 (nM) [NF-kB assay], with OVCAR3 cells” value came out at 0.288 nM; the “EC50 (nM) [NF-kB assay], with SK-BR3 cells” value came out at 0.234 nM; the “Fold of Induction [NF-kB assay], with B-CAG-hB7-H4 MC38 cells” value was 76.1 fold. For the same molecule, in assay [5], the “Fold of Induction [NF-kB assay], with CAMA-1 cells” value was 44.3 fold; the “Fold of Induction [NF-kB assay], with CHOK1 cells (B7-H4 negative)” value turned out to be 1.49 fold; the “Fold of Induction [NF-kB assay], with HCC1954 cells” value turned out to be 3.01 fold; the “Fold of Induction [NF-kB assay], with MC38 cells (B7-H4 negative)” value is 2.32 fold. Besides, in [5], the “Fold of Induction [NF-kB assay], with MDA-MB-468 cells” value worked out at 6.74 fold; the “Fold of Induction [NF-kB assay], with MX-1 cells” value is 62.9 fold; the “Fold of Induction [NF-kB assay], with OVCAR3 cells” value worked out at 5.02 fold; the “Fold of Induction [NF-kB assay], with PANC1 cells (B7-H4 negative)” value amounted to 1.11 fold. The “Fold of Induction [NF-kB assay], with SK-BR3 cells” value in [5] was 30.8 fold. For the same molecule, in assay [6], the dissociation constant Kd was 4.53 nM, the koff turned out to be 0.00278 s⁻¹ and the kon was 614000 M⁻¹ s⁻¹. Also, in the assay with recombinant human B7-H4, the Kd came to 4.36 nM, the koff stood at 0.00225 s⁻¹ and the kon came to 517000 M⁻¹ s⁻¹. The binding result with B7-H6 was “no binding (tested: 100 nM)”. In addition, the 50% effective concentration (EC50) in [7] was 6.46 nM. For the same molecule, the half-maximal effective concentration (EC50) in assay [8] amounted to 10.3 nM. The binding result with B7-2 is on record as “no binding (tested: 100 nM)”. In the assay with B7-1, the binding result is on record as “no binding (tested: 100 nM)”.
